Percent of the subunits' signal in I+III2+IVn supercomplexes and percent of the subunits' signal in supercomplex III2+IV data for two substances are collected here from article PMC3318979.

For experiment [1], the target named is mitochondrial respiratory chain complex I (human) (UniProt Q16795). The experiment in a line: native gel or EMSA. (In EMSA bound probe runs differently from free probe, usually more slowly.)
Experiment [2] has as its target mitochondrial respiratory chain complex III dimer (human) (UniProt P22695). The experiment can be described thus: native gel or EMSA.
Sequence of UniProt P22695 (P22695 whole entry, looked up, one chain of several): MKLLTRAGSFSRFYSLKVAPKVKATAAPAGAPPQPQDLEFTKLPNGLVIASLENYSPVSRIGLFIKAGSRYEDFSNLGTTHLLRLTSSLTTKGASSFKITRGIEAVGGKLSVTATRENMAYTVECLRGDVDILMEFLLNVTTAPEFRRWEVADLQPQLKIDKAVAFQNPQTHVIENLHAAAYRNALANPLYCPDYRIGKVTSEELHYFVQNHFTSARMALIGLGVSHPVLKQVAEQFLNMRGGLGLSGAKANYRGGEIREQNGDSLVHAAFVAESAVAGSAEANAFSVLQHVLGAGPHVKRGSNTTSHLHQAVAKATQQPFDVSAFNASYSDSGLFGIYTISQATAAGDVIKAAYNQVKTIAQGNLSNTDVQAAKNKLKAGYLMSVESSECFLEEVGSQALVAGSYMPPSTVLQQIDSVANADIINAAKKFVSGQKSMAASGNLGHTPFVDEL

Sequence of UniProt Q16795 (Q16795 whole entry, looked up, one chain of several): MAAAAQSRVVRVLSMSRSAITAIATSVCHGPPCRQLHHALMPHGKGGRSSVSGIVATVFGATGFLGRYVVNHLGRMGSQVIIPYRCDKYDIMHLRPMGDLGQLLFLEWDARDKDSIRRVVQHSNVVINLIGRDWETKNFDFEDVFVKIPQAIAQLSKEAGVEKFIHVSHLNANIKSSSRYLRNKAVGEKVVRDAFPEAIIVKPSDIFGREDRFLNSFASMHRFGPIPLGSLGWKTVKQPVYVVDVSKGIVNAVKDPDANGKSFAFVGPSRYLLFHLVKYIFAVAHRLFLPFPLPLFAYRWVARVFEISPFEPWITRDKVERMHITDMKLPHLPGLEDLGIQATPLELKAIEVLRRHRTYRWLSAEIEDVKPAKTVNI

Regarding “mitochondrial respiratory chain complex III dimer (from UniProt P22695 15-453; P47985 79-274)”, in experiment [1], the percent of the subunits' signal in I+III2+IVn supercomplexes turned out to be 50%.

“mitochondrial respiratory chain complex IV (from UniProt P00395 1-513; P00403 1-227; P13073 23-169; P20674 42-150; P09669 1-75)”: in experiment [2], the percent of the subunits' signal in supercomplex III2+IV was in the range of 1 to 3%.
